Test results from the supplement of paper PMC11136658.

System: peptide library, one residue held at a place counted from the Y acceptor
Experiment: relative phosphorylation of the sub-library (ratio to the mean residue at this position); higher = residue favoured
In short: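 Peptide library mixtures, biotinylated and centred on Tyr, each fixed one residue at one position from −5 to +5. Purified recombinant kinases were incubated with them for 90 min in 384-well plates alongside 50 μM ATP and γ-32P-ATP, and the captured, rinsed peptides on streptavidin membranes were measured by phosphorimaging and ImageQuant. Normalization divided each position's intensities by the sum of its 18 randomized residues (16 for the Ser/Thr-free library) and multiplied by that number, so that values give phosphorylation relative to the mean randomized residue.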

Chain of LYN, construct: Full length, human (P07948 whole entry, looked up): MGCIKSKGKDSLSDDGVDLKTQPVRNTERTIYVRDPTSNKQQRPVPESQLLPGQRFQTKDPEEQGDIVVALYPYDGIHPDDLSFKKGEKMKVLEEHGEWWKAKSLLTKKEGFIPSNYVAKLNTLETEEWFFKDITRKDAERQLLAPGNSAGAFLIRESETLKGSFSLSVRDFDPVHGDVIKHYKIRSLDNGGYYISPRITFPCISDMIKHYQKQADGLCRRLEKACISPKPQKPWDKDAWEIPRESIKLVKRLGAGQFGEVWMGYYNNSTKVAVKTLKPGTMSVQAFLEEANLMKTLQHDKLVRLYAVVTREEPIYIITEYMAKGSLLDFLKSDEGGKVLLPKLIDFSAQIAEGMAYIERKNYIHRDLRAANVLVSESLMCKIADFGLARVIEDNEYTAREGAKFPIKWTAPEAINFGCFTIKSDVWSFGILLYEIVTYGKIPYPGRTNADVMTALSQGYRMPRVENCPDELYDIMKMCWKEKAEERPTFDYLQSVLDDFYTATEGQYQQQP

LYN, construct: Full length, human (from UniProt P07948)
relative phosphorylation
Conditions | at +1 | at +2 | at +3 | at +4 | at +5 | at -1 | at -2 | at -3 | at -4 | at -5
A fixed | 1.69 | 0.956 | 0.493 | 0.796 | 0.932 | 0.577 | 1.02 | 0.769 | 1.09 | 1.05
D fixed | 0.936 | 0.672 | 0.237 | 0.582 | 0.535 | 0.838 | 1.44 | 1.77 | 1.3 | 1.27
E fixed | 1.64 | 1.58 | 0.258 | 0.623 | 0.514 | 1.1 | 1.63 | 2.4 | 1.61 | 1.09
F fixed | 0.757 | 1.12 | 3.21 | 1.07 | 1.48 | 1.27 | 0.808 | 1.09 | 1.44 | 1.06
G fixed | 2.35 | 0.704 | 0.661 | 0.923 | 1 | 0.445 | 1.2 | 0.939 | 1.14 | 1.04
H fixed | 0.807 | 0.613 | 0.68 | 1.22 | 0.988 | 0.505 | 0.773 | 0.703 | 0.641 | 0.871
I fixed | 1.15 | 1.13 | 2.63 | 0.899 | 0.956 | 3.44 | 1.05 | 0.802 | 0.922 | 1.02
K fixed | 0.22 | 0.682 | 0.443 | 1.25 | 1.21 | 0.21 | 0.489 | 0.427 | 0.582 | 0.805
L fixed | 0.822 | 0.804 | 1.47 | 0.911 | 1.04 | 2.08 | 0.993 | 0.835 | 1.24 | 1.03
M fixed | 1.04 | 0.935 | 0.896 | 1.09 | 0.848 | 0.982 | 0.635 | 0.992 | 0.992 | 1.07
N fixed | 0.628 | 0.943 | 0.347 | 0.803 | 0.66 | 0.381 | 1.14 | 1.09 | 0.82 | 1.09
P fixed | 0.226 | 0.911 | 0.638 | 1.06 | 1.28 | 0.791 | 1.14 | 1.24 | 0.991 | 1.03
Q fixed | 1.1 | 0.963 | 0.352 | 1.14 | 0.778 | 0.463 | 1.03 | 0.917 | 1.19 | 1.09
R fixed | 0.31 | 0.92 | 0.974 | 1.38 | 1.32 | 0.2 | 0.524 | 0.45 | 0.6 | 0.762
S fixed | 1.05 | 1.31 | 0.507 | 0.974 | 1.05 | 0.413 | 1.16 | 0.905 | 0.721 | 0.833
T fixed | 0.795 | 1.33 | 0.59 | 0.851 | 1.01 | 1.22 | 0.964 | 0.823 | 0.669 | 0.765
V fixed | 1.3 | 1.2 | 1.4 | 0.824 | 0.893 | 2.27 | 1.02 | 0.696 | 0.803 | 0.885
W fixed | 1.18 | 1.22 | 2.21 | 1.61 | 1.5 | 0.811 | 0.977 | 1.15 | 1.25 | 1.23
pThr fixed | 0.927 | 1.68 | 0.243 | 0.385 | 0.435 | 2.22 | 1.34 | 1.24 | 1.14 | 1.11
pTyr fixed | 1.36 | 1.98 | 0.397 | 0.897 | 0.487 | 1.35 | 1.2 | 1.49 | 1.45 | 1.21
